Data reported in patent US20200071424A1 (SHIONOGI, published 2020).

B1: h13B3-S1 (antibody, V domains shown)
VH: QVQLVQSGAEVKKPGASVKVSCKASGYTFTEYTMHWVRQAPGQGLEWMGSINPYYGGTSYNEKFKDRVTMTRDTSTSTVYMELSSLRSEDTAVYYCARYGNYVGYFDYWGQGTTVTVSS
VL: EIVLTQSPGTLSLSPGERATLSCRASSSVHYMYWYQQKPGQAPRLLIYYTSNLAPGIPDRFSGSGSGTDFTLTISRLEPEDFAVYYCQQFTSSPYTFGGGTKVEIK
B2: h53A11-S1 (antibody, V domains shown)
VH: QVQLVQSGAEVKKPGASVKVSCKASGYTFTDYTMHWVRQAPGQRLEWMGGINPYYGGTTYNEKFKDRVTITRDTSASTAYMELSSLRSEDTAVYYCAKGDYYGGSYNYWGQGTTVTVSS
VL: EIVMTQSLATLSVSPGERATLSCRASQDISNSLHWYQQKPGQAPRLLIKYASQSISGIPARFSGSGSGTEFTLTISSLQSEDFAVYYCQQSNSWPYTFGQGTKLEIK
B3: h16F6-S4 (antibody, V domains shown)
VH: QVQLVQSGAEVKKPGASVKVSCKASGYTFTTYWIAWVRQAPGQGLEWMGEILPGSAKTKYNKKFKGRVTMTRDTSTSTVYMELSSLRSEDTAVYYCAVYDYGADYWGQGTTVTVSS
VL: DIQMTQSPSSLSASVGDRVTITCKASQDVYTAVAWYQQKPGKSPKLLIYSASYRFTGVPSRFTGSGAGTDFTFTISSLQPEDFATYYCQQHYSIPRTFGGGTKVEIK
B4: h16F6-S5 (antibody, V domains shown)
VH: QVQLVQSGAEVKKPGASVKVSCKASGYTFTTYWIAWVRQAPGQGLEWMGEILPGSAKTKYNKKFKGRVTMTRDTSTSTVYMELSSLRSEDTAVYYCAVYDYGADYWGQGTTVTVSS
VL: DIQMTQSPSSLSASVGDRVSITCKASQDVYTAVAWYQQKPGKSPKLLIYSASYRFTGVPSRFTGSGAGTDFTFTISSLQPEDFATYYCQQHYSIPRTFGGGTKVEIK
B5: h23H8-S2 (antibody, V domains shown)
VH: QVQLVQSGAEVKKPGASVKVSCKASGYTFTDNTIHWVRQAPGQGLEWMGHINPYYGGTNNNEKFKDRVTMTRDTSISTAYMELSRLRSDDTAVYYCARKGIYYSSPFDYWGQGTTVTVSS
VL: DIQMTQSPSSLSASVGDRVTITCRASQDINNYLNWYQQKPGKAPKLLISYTSKLHSGVPSRFSGSGSGTDFTLTISSLQREDFATYYCQQGNTLPFTFGQGTKLEIK
B6: h55A1-S1 (antibody, V domains shown)
VH: QVQLVQSGSELKKPGASVKVSCKASGYTFTNYGMNWVRQAPGQGLEWMGWINTYSGVPTYAGDFKGRFVFSLDTSVSTAYLQISSLKAEDTAVYYCARRGYYGRRYFDVWGKGTTVTVSS
VL: DIVLTQSPASLAVSPGQRATITCKASQSVDYDVDSYMHWYQQKPGQPPKLLIYAASNLASGVPARFSGSGSGTDFTLTINPVEANDTANYYCQQTIEDPPTFGGGTKVEIK
notes: humanized
B7: h16B3-S2 (antibody, V domains shown)
VH: EVQLVESGGGLVQPGGSLRLSCAASGFTFSGYTMSWVRQAPGKGLEWVSEISFARDRAFYPDTVKGRFTISRDNSKNTLYLQMNSLRAEDTAVYYCARLGGRNHDYWYFDVWGQGTTVTVSS
VL: DIVMTQSPDSLAVSLGERATINCRASESVEYYGTSLMQWYQQKPGQPPKLLIYAASNVESGVPDRFSGSGSGTDFTLTISSLQAEDVAVYYCQQSWKVPFTFGQGTKLEIK
notes: humanized

Columns and labels:
[1] = biological target: T1, human EL (vascular endothelial lipase) (human, UniProt Q9Y5X9 21-500); assay: cell-based or functional assay
T1 sequence: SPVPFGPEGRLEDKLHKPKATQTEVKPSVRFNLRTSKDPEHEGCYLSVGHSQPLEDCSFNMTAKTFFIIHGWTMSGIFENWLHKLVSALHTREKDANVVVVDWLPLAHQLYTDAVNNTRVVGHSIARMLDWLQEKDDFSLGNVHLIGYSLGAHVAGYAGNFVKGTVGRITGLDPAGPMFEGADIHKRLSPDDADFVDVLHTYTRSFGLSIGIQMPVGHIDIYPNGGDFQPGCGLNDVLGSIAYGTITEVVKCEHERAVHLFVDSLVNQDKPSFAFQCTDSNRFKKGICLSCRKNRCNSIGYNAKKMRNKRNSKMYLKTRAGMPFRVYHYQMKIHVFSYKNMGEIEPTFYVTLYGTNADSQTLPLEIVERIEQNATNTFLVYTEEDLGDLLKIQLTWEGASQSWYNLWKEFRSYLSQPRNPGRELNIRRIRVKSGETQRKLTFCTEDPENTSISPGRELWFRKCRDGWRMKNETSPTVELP

[2] = biological target: T2, human [1-305]-mouse chimeric EL (human; mouse, UniProt Q9WVG5 306-500); assay: cell-based or functional assay
T2 sequence: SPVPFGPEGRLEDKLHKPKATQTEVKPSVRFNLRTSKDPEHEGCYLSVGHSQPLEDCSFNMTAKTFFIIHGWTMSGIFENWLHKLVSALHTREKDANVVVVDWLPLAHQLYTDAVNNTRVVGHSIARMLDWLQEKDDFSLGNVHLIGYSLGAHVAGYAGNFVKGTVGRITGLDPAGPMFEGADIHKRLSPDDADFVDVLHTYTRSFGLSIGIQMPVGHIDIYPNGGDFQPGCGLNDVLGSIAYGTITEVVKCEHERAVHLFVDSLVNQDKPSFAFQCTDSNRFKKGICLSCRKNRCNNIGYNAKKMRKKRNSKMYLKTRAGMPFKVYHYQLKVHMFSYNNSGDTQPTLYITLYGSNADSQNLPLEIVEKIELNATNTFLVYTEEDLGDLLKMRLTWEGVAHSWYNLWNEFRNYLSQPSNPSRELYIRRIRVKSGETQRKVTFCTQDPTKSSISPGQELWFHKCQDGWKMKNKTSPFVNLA

[3] = biological target: T3, human HL (hepatic lipase) (human, UniProt P11150 23-499); assay: cell-based or functional assay
T3 sequence (looked up): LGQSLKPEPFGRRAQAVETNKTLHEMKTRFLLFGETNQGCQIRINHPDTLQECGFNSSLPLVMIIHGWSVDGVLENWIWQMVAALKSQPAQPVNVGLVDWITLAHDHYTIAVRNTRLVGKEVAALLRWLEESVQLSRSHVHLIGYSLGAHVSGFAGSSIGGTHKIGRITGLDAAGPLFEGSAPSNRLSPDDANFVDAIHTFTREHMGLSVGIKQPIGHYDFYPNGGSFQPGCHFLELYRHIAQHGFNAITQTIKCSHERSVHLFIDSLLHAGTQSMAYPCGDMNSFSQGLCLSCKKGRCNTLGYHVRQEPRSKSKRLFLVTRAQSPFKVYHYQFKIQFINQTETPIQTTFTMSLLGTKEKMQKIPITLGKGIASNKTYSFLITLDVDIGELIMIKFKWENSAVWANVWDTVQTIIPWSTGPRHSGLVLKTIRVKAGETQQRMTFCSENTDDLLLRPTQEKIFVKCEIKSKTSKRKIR

[4] = biological target: T4, human LPL (lipoprotein lipase) (human, UniProt P06858 28-475); assay: cell-based or functional assay
T4 sequence (looked up): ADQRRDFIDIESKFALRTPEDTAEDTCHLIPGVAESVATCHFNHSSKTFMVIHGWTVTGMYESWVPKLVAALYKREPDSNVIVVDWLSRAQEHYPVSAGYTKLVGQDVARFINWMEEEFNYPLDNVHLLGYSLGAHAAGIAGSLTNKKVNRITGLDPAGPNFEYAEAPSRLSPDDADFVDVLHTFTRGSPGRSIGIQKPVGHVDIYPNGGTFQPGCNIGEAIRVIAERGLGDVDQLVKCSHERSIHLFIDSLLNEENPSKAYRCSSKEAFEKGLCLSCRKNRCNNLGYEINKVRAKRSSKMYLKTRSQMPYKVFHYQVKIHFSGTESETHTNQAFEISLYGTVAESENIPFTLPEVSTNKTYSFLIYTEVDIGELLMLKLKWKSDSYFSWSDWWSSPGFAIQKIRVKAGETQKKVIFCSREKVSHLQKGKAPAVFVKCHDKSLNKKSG

baboon EL = baboon EL (baboon); assay: cell-based or functional assay
mouse EL = biological target: T5, mouse EL (mouse, UniProt Q9WVG5 21-500); assay: cell-based or functional assay
T5 sequence (looked up): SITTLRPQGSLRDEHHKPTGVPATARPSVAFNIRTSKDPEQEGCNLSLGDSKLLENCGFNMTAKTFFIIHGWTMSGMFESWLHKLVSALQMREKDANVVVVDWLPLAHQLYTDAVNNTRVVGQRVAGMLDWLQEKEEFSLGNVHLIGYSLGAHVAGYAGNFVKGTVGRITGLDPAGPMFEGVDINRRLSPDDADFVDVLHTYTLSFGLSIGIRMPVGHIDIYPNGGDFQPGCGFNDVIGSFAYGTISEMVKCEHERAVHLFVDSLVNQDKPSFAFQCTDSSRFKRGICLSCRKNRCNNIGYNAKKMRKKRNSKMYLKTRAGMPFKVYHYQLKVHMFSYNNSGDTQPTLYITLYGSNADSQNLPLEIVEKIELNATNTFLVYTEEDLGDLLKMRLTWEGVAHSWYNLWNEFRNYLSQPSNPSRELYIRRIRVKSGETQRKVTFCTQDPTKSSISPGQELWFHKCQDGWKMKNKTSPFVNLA

cynomolgus monkey EL [5] = biological target: cynomolgus monkey EL (cynomolgus monkey); assay: cell-based or functional assay
cynomolgus monkey EL [6] = biological target: T6, cynomolgus monkey EL (cynomolgus monkey); assay: Biacore; EL captured by anti-C2-tag Ab; bivalent fit
T6 construct: Heparin extract; also called cynomolgus EL; Cynomolgus EL
Procedure: (§1) The binding affinities of anti-EL antibodies were measured using Biacore. […] Then, anti-EL humanized antibodies were added and the binding affinities were calculated by bivalent fitting of BIAevaluation software.

[7] = biological target: T2, human [1-305]-mouse chimeric EL; assay: as above
Procedure: as §1

Row | Neutralizing activity IC50 [1] | Neutralizing activity IC50 [2] | Neutralizing activity IC50 [3] | Neutralizing activity IC50 [4] | Neutralizing activity IC50 (baboon EL) | Neutralizing activity IC50 (mouse EL) | Neutralizing activity IC50 (cynomolgus monkey EL [5]) | Kd (cynomolgus monkey EL [6]) | koff (cynomolgus monkey EL [6]) | kon (cynomolgus monkey EL [6]) | Kd [7] | koff [7] | kon [7] | Binder
1 | 2.3 nM | 3 nM | > 400 nM | > 400 nM | – | – | – | – | – | – | – | – | – | B1
2 | 9.7 nM | 2.1 nM | > 400 nM | > 400 nM | – | – | – | – | – | – | – | – | – | B2
3 | – | – | – | – | 2.6 nM | 2 nM | – | – | – | – | – | – | – | B3
4 | – | – | – | – | 2 nM | 2.1 nM | – | – | – | – | – | – | – | B4
5 | 4.5 nM | 1.7 nM | > 400 nM | > 400 nM | – | – | – | – | – | – | – | – | – | B5
6 | 3.9 nM | 2.2 nM | > 1800 nM | > 1800 nM | – | – | 1.6 nM | 0.59 nM | 0.00026 s⁻¹ | 440000 M⁻¹ s⁻¹ | 31 nM | 0.00086 s⁻¹ | 27000 M⁻¹ s⁻¹ | B6
7 | 4.6 nM | 5.3 nM | > 400 nM | > 400 nM | – | – | 1.9 nM | 2 nM | 0.0001 s⁻¹ | 51000 M⁻¹ s⁻¹ | 9.3 nM | 0.00022 s⁻¹ | 24000 M⁻¹ s⁻¹ | B7
